Source: patent US20210338751A1 (LUMEN BIOSCIENCE, published 2021)

How the values were obtained:
[1] = target: T1, Clostridium difficile toxin B (TcdB) (Clostridium difficile, UniProt P18177 2-2366); experiment: method not stated
T1 construct: also called TcdB toxin

[2] = target: T1, Clostridium difficile toxin B (TcdB); experiment: assay not given; unlabelled list of VHH names and values at the right of the sheet, the same values stand under KD in Table 6 of the text, which prints the unit of 5D as mM
GI.1 VLPs = target: T2, GI.1 VLPs (human norovirus genotype GI.1); experiment: blocking of GI.1 VLP binding to pig gastric mucin (HBGA)
T2 construct: virus-like particle

[3] = target: T3, recombinant HuNoV GI.1 P domain (Human Norovirus (HuNoV) GI.1); experiment: ELISA on recombinant HuNoV GI.1 P domain, Spirulina-expressed Ni-NTA purified protein after freeze-drying
T3 construct: domain: Protrusion (P) domain

[4] = target: T3, recombinant HuNoV GI.1 P domain; experiment: ELISA on recombinant HuNoV GI.1 P domain, Spirulina-expressed Ni-NTA purified protein stored at 4 C
[5] = target: T3, recombinant HuNoV GI.1 P domain; experiment: ELISA on recombinant GI.1 P domain
[6] = target: T1, Clostridium difficile toxin B (TcdB); experiment: cell-based or functional assay
[7] = target: T4, recombinant HuNoV GII.10 P domain (Human Norovirus (HuNoV) GII.10); experiment: ELISA on recombinant HuNoV GII.10 P domain, Spirulina-expressed Ni-NTA purified protein stored at 4 C
T4 construct: domain: Protrusion (P) domain

[8] = target: T5, recombinant HuNoV GII.2 P domain (Human Norovirus (HuNoV) GII.2); experiment: BLI, biotin tagged GII.2 P domain at 100 nM as antigen
T5 construct: domain: Protrusion (P) domain

[9] = target: T4, recombinant HuNoV GII.10 P domain; experiment: ELISA on recombinant HuNoV GII.10 P domain, Spirulina-expressed Ni-NTA purified protein after freeze-drying

B1: anti-TcdB VHH 5D (VHH)
VHH: QVQLVESGGGLVQPGGSLRLSCEASGFTLDYYGIGWFRQPPGKEREAVSYISASARTILYADSVKGRFTISRDNAKNAVYLQMNSLKREDTAVYYCARRRFSASSVNRWLADDYDVWGRGTQVAVSS
Kd [1]: 0.65 nM | Kd [2]: 0.65 nM

B2: Nano94-TxnA (VHH)
VHH: QVQLQESGGGLVQAGGSLRLSCAASGRMFSINSMGWYRQAPGKERELVATISEAGTTTYADSVRGRFTIARDNAKNTVYLQMNSLNPEDTAVYYCNAYIQLDSTIWFRAYWGQGTQVTVSS
notes: also called SP835
IC50 (read off the curve) (GI.1 VLPs): ~2 µg/mL | EC50 [3]: 36.7 nM | EC50 [4]: 27.3 nM | EC50 [5]: 50.1 nM

B3: Nano94-MBP (VHH)
VHH: B2 VHH
notes: also called SP836
IC50 (read off the curve) (GI.1 VLPs): ~2 µg/mL

B4: 5D+E3+7F (other)
VHH 5D: QVQLVESGGGLVQPGGSLRLSCEASGFTLDYYGIGWFRQPPGKEREAVSYISASARTILYADSVKGRFTISRDNAKNAVYLQMNSLKREDTAVYYCARRRFSASSVNRWLADDYDVWGRGTQVAVSSEPKTPKPQ
VHH E3: QVQLVESGGGLVQTGGSLRLSCASSGSIAGFETVTWSRQAPGKSLQWVASMTKTNNEIYSDSVKGRFIISRDNAKNTVYLQMNSLKPEDTGVYFCKGPELRGQGIQVTVSSEPKTPKPQ
VHH 7F: DVQLQASGGGLVQAGGSLRLSCVASARTFSSYAMGWFRQAPGKEREFVAAISWSGASTDYADSVKGRFTISRDNAKKTVYLQMNTLKPEDTAVYYCAAHHITPTGSYYYSEPLPVDMVYDYWGQGTQVTVSSEPKTKTTTSGR
Adherence Score at TcdB 0.00001 ng/ml, VHH 100 ng/ml total; none: 7 [6]: 7 | Adherence Score at TcdB 0.0001 ng/ml, VHH 100 ng/ml total; none: 7 [6]: 7 | Adherence Score at TcdB 0.001 ng/ml, VHH 100 ng/ml total; none: 6 [6]: 7 | Adherence Score at TcdB 0.01 ng/ml, VHH 100 ng/ml total; none: 5 [6]: 7 | Adherence Score at TcdB 0.1 ng/ml, VHH 100 ng/ml total; none: 2 [6]: 7 | Adherence Score at TcdB 1 ng/ml, VHH 100 ng/ml total; none: 1 [6]: 7 | Adherence Score at TcdB 10 ng/ml, VHH 100 ng/ml total; none: 1 [6]: 3

B5: E3+7F+2D (other)
VHH E3: B4 VHH E3
VHH 7F: B4 VHH 7F
VHH 2D: QVKLQQSGGGLVQAGGSLRLSCAASGTFSRYAMGWFRQAPGKEREFVAAINWTGGSTYYADSVKGRFTISGDNAKNTVYLQMNSLKPGDTAVYYCAAEVHPGDYGLTYMQSQYEYDYWGQGTQVTVSSEPKTPKPTTSGR
Adherence Score at TcdB 0.00001 ng/ml, VHH 100 ng/ml total; none: 7 [6]: 7 | Adherence Score at TcdB 0.0001 ng/ml, VHH 100 ng/ml total; none: 7 [6]: 7 | Adherence Score at TcdB 0.001 ng/ml, VHH 100 ng/ml total; none: 6 [6]: 7 | Adherence Score at TcdB 0.01 ng/ml, VHH 100 ng/ml total; none: 5 [6]: 7 | Adherence Score at TcdB 0.1 ng/ml, VHH 100 ng/ml total; none: 2 [6]: 6 | Adherence Score at TcdB 1 ng/ml, VHH 100 ng/ml total; none: 1 [6]: 4 | Adherence Score at TcdB 10 ng/ml, VHH 100 ng/ml total; none: 1 [6]: 1

B6: 5D+E3+2D (other)
VHH 5D: B4 VHH 5D
VHH E3: B4 VHH E3
VHH 2D: B5 VHH 2D
Adherence Score at TcdB 0.00001 ng/ml, VHH 100 ng/ml total; none: 7 [6]: 7 | Adherence Score at TcdB 0.0001 ng/ml, VHH 100 ng/ml total; none: 7 [6]: 7 | Adherence Score at TcdB 0.001 ng/ml, VHH 100 ng/ml total; none: 6 [6]: 7 | Adherence Score at TcdB 0.01 ng/ml, VHH 100 ng/ml total; none: 5 [6]: 7 | Adherence Score at TcdB 0.1 ng/ml, VHH 100 ng/ml total; none: 2 [6]: 7 | Adherence Score at TcdB 1 ng/ml, VHH 100 ng/ml total; none: 1 [6]: 6.1 | Adherence Score at TcdB 10 ng/ml, VHH 100 ng/ml total; none: 1 [6]: 2.1

B7: 5D+7F+5E (other)
VHH 5D: B4 VHH 5D
VHH 7F: B4 VHH 7F
VHH 5E: VQLVESGGGLVQAGGSLRLSCAASGLMFGAMTMGWYRQAPGKEREMVAYITAGGTESYSESVKGRFTISRINANNMVYLQMTNLKVEDTAVYYCNAHNFWRTSRNWGQGTQVTVSSEPKTPKP
Adherence Score at TcdB 0.00001 ng/ml, VHH 100 ng/ml total; none: 7 [6]: 7 | Adherence Score at TcdB 0.0001 ng/ml, VHH 100 ng/ml total; none: 7 [6]: 7 | Adherence Score at TcdB 0.001 ng/ml, VHH 100 ng/ml total; none: 6 [6]: 7 | Adherence Score at TcdB 0.01 ng/ml, VHH 100 ng/ml total; none: 5 [6]: 7 | Adherence Score at TcdB 0.1 ng/ml, VHH 100 ng/ml total; none: 2 [6]: 7 | Adherence Score at TcdB 1 ng/ml, VHH 100 ng/ml total; none: 1 [6]: 4 | Adherence Score at TcdB 10 ng/ml, VHH 100 ng/ml total; none: 1 [6]: 1

B8: anti-TcdB VHH E3 (VHH)
VHH: B4 VHH E3
Kd [1]: 0.03 nM

B9: anti-TcdB VHH 7F (VHH)
VHH: QVQLVESGGGLVEAGGSLRLSCVVTGSSFSTSTMAWYRQPPGKQREWVASFTSGGAIKYTDSVKGRFTMSRDNAKKMTYLQMENLKPEDTAVYYCALFINAVSGSSWGRGTQVTVSS
Kd [1]: 8.8 nM

B10: Nano26-MBP (VHH, not shown: large carriers)
VHH: QVQLQESGGGLVQPGGSLRLSCTAPRIIFFMYDVGWYRQAPEKQRELVAQINSDVSTKYADSVKGRFTISRDNAKRTVYLQMNDLKPEDAAVYYCNVRRASADYWGQGTQVTVSS
notes: also called SP834
EC50 [7]: 2.75 nM | Kd [8]: 21.9 nM | kon [8]: 172000 M⁻¹ s⁻¹ | EC50 [9]: 2.29 nM

B11: anti-TcdB VHH C6 (VHH)
VHH: VQLVESGGGLVQAGESLRLSCVVSESIFRINTMGWYRQTPGKQREVVARITLRNSTTYADSVKGRFTISRDDAKNTLYLKMDSLKPEDTAVYYCHRYPLIFRNSPYWGQGTQVTVSS
Kd [1]: 0.89 nM

B12: anti-TcdB VHH B12 (VHH)
VHH: VQLVESGGGLVQAGDSLTLSCAASESTFNTFSMAWFRQAPGKEREYVAAFSRSGGTTNYADSVKGRATISTDNAKNTVYLHMNSLKPEDTAVYFCAADRPAGRAYFQSRSYNYWGQGTQVTVSS
Kd [1]: 0.07 nM
